Data: patent publication US20230203177A1 (Bristol-Myers Squibb, published 2023)
Changes are numbered by the printed parent chain. Numbers in names are those of the source.

B1: M17 (HC-wt / LC-K45Q) (antibody, human IgG1, kappa)
heavy: not shown
light: DIQMTQSPSFLSASVGDRVTITCKASQDVSTAVAWYQQKPGKAPQLLIYSASYRYTGVPSRFSGSGSGTDFTLTISSLQPEDFATYYCQQHYSTPWTFGGGTKVEIKRTVAAPSVFIFPPSDEQLKSGTASVVCLLNNFYPREAKVQWKVDNALQSGNSQESVTEQDSKDSTYSLSSTLTLSKADYEKHKVYACEVTHQGLSSPVTKSFNRGEC
notes: IgG1-P238K; also called HC1/LC2
B2: M3 (HC-K12Q,K13Q,K23Q / LC-wt) (antibody, human IgG1, kappa)
heavy: not shown
light: B1 light with Q45K
notes: IgG1-P238K; also called HC3/LC1
B3: M28 (HC-R57E,K74Q / LC-K45Q) (antibody, human IgG1, kappa, V domains shown)
VH: QVQLVQSGAEVKKPGSSVKVSCKASGYAFTSYWMHWVRQAPGQGLEWMGQINPTTGESQYNEKFKTRVTITADQSTSTAYMELSSLRSEDTAVYYCARWGLQPFAYWGQGTLVTVSS
VL: DIQMTQSPSFLSASVGDRVTITCKASQDVSTAVAWYQQKPGKAPQLLIYSASYRYTGVPSRFSGSGSGTDFTLTISSLQPEDFATYYCQQHYSTPWTFGGGTKVEIKR
notes: IgG1-P238K; also called HC12/LC2
B4: M6 (HC-K12V,K19S,K23A / LC-wt) (antibody, human IgG1, kappa)
heavy: not shown
light: B1 light with Q45K
notes: IgG1-P238K; also called HC6/LC1
B5: M34 (HC-K12Q,K13Q / LC-K45E) (antibody, human IgG1, kappa)
heavy: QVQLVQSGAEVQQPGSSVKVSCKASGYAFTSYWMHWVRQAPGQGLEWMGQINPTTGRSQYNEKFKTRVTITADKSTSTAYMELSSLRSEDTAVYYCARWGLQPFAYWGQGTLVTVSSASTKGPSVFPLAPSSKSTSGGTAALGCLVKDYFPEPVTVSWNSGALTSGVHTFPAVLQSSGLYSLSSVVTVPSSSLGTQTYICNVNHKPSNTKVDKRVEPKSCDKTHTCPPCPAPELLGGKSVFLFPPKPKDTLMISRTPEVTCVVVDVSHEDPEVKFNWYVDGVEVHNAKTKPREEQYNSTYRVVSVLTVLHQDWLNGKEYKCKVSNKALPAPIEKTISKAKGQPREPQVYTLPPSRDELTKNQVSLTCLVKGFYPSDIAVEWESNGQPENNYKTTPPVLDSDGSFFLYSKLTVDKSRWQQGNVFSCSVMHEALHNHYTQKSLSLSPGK
light: B1 light with Q45E
notes: IgG1-P238K; also called HC2/LC3
B6: M20 (HC-K12E / LC-K45Q) (antibody, human IgG1, kappa)
heavy: not shown
light: B1 light
notes: IgG1-P238K; also called HC4/LC2
B7: M35 (HC-K12Q,K13Q,K23Q / LC-K45E) (antibody, human IgG1, kappa, V domains shown)
VH: B3 VH with K12Q, K13Q, K23Q, E57R, Q74K
VL: B3 VL with Q45E
notes: IgG1-P238K; also called HC3/LC3
B8: M8 (HC-R38Q,K63Q,R67Q / LC-wt) (antibody, human IgG1, kappa)
heavy: not shown
light: B1 light with Q45K
notes: IgG1-P238K; also called HC8/LC1
B9: M27 (HC-R57E / LC-K45Q) (antibody, human IgG1, kappa, V domains shown)
VH: B3 VH with Q74K
VL: B3 VL
notes: IgG1-P238K; also called HC11/LC2
B10: M23 (HC-K23E / LC-K45Q) (antibody, human IgG1, kappa)
heavy: not shown
light: B1 light
notes: IgG1-P238K; also called HC7/LC2
B11: M15 (HC-R67Q / LC-wt) (antibody, human IgG1, kappa)
heavy: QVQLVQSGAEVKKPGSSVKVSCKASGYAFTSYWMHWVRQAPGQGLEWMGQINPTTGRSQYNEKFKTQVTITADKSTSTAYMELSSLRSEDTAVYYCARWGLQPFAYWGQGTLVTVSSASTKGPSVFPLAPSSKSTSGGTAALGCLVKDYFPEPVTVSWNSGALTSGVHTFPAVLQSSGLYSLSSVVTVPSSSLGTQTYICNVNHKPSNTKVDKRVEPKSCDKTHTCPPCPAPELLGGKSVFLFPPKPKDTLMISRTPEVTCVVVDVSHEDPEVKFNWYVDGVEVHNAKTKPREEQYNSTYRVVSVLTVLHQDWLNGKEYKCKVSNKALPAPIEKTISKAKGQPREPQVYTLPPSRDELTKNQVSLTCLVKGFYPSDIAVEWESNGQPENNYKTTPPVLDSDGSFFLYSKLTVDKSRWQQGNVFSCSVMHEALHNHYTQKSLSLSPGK
light: B1 light with Q45K
notes: IgG1-P238K; also called HC15/LC1
B12: M21 (HC-K12E,K13Q,K23E / LC-K45Q) (antibody, human IgG1, kappa)
heavy: not shown
light: B1 light
notes: IgG1-P238K; also called HC5/LC2
B13: M26 (HC-R67E / LC-K45Q) (antibody, human IgG1, kappa, V domains shown)
VH: B3 VH with E57R, R67E, Q74K
VL: B3 VL
notes: IgG1-P238K; also called HC10/LC2
B14: M2 (HC-K12Q,K13Q / LC-wt) (antibody, human IgG1, kappa)
heavy: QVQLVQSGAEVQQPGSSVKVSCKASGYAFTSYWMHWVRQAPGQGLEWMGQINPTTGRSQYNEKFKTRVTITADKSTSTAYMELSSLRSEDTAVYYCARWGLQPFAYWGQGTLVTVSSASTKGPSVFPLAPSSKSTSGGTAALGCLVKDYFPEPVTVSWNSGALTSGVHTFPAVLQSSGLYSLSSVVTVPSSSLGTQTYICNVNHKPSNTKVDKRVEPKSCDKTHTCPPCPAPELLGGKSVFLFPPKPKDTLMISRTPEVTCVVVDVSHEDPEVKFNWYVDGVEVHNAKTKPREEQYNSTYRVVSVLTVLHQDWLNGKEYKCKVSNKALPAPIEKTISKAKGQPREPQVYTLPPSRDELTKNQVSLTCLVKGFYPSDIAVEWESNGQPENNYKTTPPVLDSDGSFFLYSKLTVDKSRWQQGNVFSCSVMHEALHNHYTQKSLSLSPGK
light: B1 light with Q45K
notes: IgG1-P238K; also called HC2/LC1
B15: M16 (HC-K63Q / LC-wt) (antibody, human IgG1, kappa)
heavy: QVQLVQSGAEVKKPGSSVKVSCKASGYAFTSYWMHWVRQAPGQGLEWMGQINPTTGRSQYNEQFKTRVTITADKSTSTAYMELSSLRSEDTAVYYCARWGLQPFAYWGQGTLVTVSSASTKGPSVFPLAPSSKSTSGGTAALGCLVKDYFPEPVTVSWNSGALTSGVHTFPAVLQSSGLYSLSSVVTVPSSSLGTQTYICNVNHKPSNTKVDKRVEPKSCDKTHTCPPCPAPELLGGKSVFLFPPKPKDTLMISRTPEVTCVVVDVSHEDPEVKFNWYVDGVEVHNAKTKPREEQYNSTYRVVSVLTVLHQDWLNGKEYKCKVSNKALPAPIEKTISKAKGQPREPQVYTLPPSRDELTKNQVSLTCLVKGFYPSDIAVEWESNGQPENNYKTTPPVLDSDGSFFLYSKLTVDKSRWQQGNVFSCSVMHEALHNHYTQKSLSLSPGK
light: B1 light with Q45K
notes: IgG1-P238K; also called HC16/LC1
B16: M29 (HC-E46K,E62K / LC-K45Q) (antibody, human IgG1, kappa, V domains shown)
VH: B3 VH with E46K, E57R, E62K, Q74K
VL: B3 VL
notes: IgG1-P238K; also called HC13/LC2
B17: M24 (HC-R38Q,K63Q,R67Q / LC-K45Q) (antibody, human IgG1, kappa, V domains shown)
VH: B3 VH with R38Q, E57R, K63Q, R67Q, Q74K
VL: B3 VL
notes: IgG1-P238K; also called HC8/LC2
B18: M30 (HC-K74T / LC-K45Q) (antibody, human IgG1, kappa, V domains shown)
VH: B3 VH with E57R, Q74T
VL: B3 VL
notes: IgG1-P238K; also called HC14/LC2
B19: M12 (HC-R57E,K74Q / LC-wt) (antibody, human IgG1, kappa)
heavy: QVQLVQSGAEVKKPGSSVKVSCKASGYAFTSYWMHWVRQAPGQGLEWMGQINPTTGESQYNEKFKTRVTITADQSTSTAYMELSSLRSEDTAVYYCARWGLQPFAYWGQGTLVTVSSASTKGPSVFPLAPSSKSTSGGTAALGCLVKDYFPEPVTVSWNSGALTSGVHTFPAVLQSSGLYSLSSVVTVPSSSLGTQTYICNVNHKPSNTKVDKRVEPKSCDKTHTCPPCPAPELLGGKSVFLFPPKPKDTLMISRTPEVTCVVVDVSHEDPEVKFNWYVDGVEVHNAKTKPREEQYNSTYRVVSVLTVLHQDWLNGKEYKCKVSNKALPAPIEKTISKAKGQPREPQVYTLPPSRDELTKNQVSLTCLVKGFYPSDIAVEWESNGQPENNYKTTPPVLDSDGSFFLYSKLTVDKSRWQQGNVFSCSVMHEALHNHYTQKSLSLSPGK
light: B1 light with Q45K
notes: IgG1-P238K; also called HC12/LC1
B20: M18 (HC-K12Q,K13Q / LC-K45Q) (antibody, human IgG1, kappa)
heavy: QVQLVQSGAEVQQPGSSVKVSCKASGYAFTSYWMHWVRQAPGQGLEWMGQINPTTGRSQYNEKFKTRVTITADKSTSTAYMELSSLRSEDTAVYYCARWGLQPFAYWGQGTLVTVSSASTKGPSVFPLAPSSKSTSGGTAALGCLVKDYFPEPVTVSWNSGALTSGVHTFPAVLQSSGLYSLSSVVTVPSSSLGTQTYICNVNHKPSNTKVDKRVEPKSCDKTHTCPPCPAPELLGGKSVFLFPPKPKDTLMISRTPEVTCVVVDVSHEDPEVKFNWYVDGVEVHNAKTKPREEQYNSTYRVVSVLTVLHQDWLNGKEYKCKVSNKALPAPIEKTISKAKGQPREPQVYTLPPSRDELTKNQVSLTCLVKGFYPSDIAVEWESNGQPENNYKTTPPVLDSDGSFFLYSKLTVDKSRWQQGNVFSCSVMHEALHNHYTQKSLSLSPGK
light: B1 light
notes: IgG1-P238K; also called HC2/LC2
B21: M7 (HC-K23E / LC-wt) (antibody, human IgG1, kappa)
heavy: not shown
light: B1 light with Q45K
notes: IgG1-P238K; also called HC7/LC1
B22: M14 (HC-K74T / LC-wt) (antibody, human IgG1, kappa)
heavy: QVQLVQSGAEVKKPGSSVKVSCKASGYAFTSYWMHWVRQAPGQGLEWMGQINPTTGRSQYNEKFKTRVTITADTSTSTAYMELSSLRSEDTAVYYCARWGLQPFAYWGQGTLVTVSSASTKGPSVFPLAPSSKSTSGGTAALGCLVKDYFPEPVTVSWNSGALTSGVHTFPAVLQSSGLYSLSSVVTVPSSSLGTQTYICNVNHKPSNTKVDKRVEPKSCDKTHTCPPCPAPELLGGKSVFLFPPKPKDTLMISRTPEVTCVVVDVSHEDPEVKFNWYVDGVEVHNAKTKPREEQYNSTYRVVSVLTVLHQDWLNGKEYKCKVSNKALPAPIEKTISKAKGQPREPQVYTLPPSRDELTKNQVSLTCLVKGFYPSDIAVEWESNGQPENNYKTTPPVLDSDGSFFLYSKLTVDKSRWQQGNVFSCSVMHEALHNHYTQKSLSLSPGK
light: B1 light with Q45K
notes: IgG1-P238K; also called HC14/LC1
B23: M31 (HC-R67Q / LC-K45Q) (antibody, human IgG1, kappa, V domains shown)
VH: B3 VH with E57R, R67Q, Q74K
VL: B3 VL
notes: IgG1-P238K; also called HC15/LC2
B24: M32 (HC-K63Q / LC-K45Q) (antibody, human IgG1, kappa, V domains shown)
VH: B3 VH with E57R, K63Q, Q74K
VL: B3 VL
notes: IgG1-P238K; also called HC16/LC2
B25: M19 (HC-K12Q,K13Q,K23Q / LC-K45Q) (antibody, human IgG1, kappa, V domains shown)
VH: B3 VH with K12Q, K13Q, K23Q, E57R, Q74K
VL: B3 VL
notes: IgG1-P238K; also called HC3/LC2
B26: M9 (HC-K63Q,R67E / LC-wt) (antibody, human IgG1, kappa)
heavy: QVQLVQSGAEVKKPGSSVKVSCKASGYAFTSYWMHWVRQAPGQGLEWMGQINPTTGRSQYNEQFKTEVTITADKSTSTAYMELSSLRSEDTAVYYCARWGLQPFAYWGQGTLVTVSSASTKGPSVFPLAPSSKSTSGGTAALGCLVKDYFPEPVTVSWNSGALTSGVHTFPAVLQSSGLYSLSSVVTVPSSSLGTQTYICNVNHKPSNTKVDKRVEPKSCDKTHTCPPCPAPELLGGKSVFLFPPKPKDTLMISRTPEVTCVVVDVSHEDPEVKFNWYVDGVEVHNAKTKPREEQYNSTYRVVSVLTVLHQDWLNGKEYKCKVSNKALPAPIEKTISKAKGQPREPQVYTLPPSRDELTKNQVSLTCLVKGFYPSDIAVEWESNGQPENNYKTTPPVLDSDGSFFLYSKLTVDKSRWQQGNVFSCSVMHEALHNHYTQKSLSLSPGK
light: B1 light with Q45K
notes: IgG1-P238K; also called HC9/LC1
B27: M25 (HC-K63Q,R67E / LC-K45Q) (antibody, human IgG1, kappa, V domains shown)
VH: B3 VH with E57R, K63Q, R67E, Q74K
VL: B3 VL
notes: IgG1-P238K; also called HC9/LC2
B28: M11 (HC-R57E / LC-wt) (antibody, human IgG1, kappa)
heavy: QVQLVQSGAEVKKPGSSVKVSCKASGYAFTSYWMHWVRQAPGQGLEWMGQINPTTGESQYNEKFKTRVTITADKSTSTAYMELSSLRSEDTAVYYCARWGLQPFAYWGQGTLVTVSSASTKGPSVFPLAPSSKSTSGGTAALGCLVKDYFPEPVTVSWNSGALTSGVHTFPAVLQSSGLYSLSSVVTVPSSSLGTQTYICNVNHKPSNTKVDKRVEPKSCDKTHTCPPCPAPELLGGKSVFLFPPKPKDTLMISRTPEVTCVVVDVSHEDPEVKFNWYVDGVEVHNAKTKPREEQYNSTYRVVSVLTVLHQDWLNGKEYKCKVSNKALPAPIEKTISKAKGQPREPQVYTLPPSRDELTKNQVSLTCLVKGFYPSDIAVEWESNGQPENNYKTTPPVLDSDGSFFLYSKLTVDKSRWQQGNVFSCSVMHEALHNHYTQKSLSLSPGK
light: B1 light with Q45K
notes: IgG1-P238K; also called HC11/LC1
B29: M22 (HC-K12V,K19S,K23A / LC-K45Q) (antibody, human IgG1, kappa, V domains shown)
VH: B3 VH with K12V, K19S, K23A, E57R, Q74K
VL: B3 VL
notes: IgG1-P238K; also called HC6/LC2
B30: M5 (HC-K12E,K13Q,K23E / LC-wt) (antibody, human IgG1, kappa)
heavy: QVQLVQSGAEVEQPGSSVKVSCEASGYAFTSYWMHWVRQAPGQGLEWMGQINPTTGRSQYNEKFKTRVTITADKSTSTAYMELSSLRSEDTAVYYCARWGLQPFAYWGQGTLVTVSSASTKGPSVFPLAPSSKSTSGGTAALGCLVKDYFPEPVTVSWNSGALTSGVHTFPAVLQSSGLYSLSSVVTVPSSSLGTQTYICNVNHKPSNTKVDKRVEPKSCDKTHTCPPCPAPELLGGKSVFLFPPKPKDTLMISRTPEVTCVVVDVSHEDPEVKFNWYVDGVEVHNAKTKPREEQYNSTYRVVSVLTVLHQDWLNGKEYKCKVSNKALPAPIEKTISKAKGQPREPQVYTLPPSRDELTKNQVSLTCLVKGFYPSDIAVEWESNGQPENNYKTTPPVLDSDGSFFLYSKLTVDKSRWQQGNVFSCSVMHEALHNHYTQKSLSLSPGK
light: B1 light with Q45K
notes: IgG1-P238K; also called HC5/LC1

molecular target: T1, soluble human CD40 extracellular domain (human, UniProt P25942 21-193); test: SPR, Ab captured from supernatant on protein A, hCD40 ECD analyte
T1 construct: Produced in house; also called hCD40; soluble hCD40 extracellular domain
T1 sequence (P25942 21-193 limits assumed): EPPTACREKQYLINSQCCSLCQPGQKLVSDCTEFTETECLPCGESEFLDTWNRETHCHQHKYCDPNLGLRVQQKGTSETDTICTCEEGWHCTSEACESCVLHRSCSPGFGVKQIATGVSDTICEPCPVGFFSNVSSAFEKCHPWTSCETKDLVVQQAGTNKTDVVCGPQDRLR
Method: The titer data (Table 21) were used to normalize the antibody concentration in each supernatant to 3 μg/ml, and these antibodies were captured out of the supernatants on a protein A CMS Series S sensor chip (GE Healthcare), and tested for binding to two concentrations (5 nM and 50 nM) of soluble hCD40 extracellular domain.
CD40 binding SPR of antibody supernatants: Surface plasmon resonance (SPR) studies were conducted on a BIAcore™ T200 instrument (GE Healthcare, Chicago Ill.). A Series S Protein A sensor chip (GE Healthcare, Chicago Ill.) was equilibrated with SPR running buffer of 10 mM NaPO₄, 130 mM NaCl, 0.05% tween 20, (PBS-T) pH 7.2 at 25° C. The 96 antibody supernatants were normalized to a concentration of 3 μg/ml by diluting with PBS-T using a PerkinElmer JANUS® G3 system (PerkinElmer, Akron, Ohio). After priming the system, the 3 μg/ml antibody samples were captured on the protein A surface for 30 s at 10 μl/min Binding of 50 nM and 500 nM human CD40 extracellular domain (produced in house) was evaluated using association time of 180 s at 30 μl/min, followed by a dissociation time of 180 s at 30 μl/min Regeneration between cycles was accomplished using two 15 s injections of 10 mM glycine pH 1.5. […] Data were analyzed using BIAcore™ T200 evaluation software by fitting to a 1:1 Langmuir model.

Binder	Kd [nM]
B1	4.1
B2	3.7
B3	15.7
B4	3.8
B5	3.3
B6	3.3
B7	3.7
B8	3.4
B9	10.4
B10	4.1
B11	3.4
B12	3.7
B13	3
B14	3.7
B15	4.1
B16	8.8
B17	2.9
B18	4
B19	14
B20	3.4
B21	4.5
B22	4
B23	3.1
B24	3.9
B25	3.8
B26	3.2
B27	3.1
B28	10.2
B29	3.5
B30	3.8
